Laboratory results published in paper PMC9482650, “Quantitative fragmentomics allow affinity mapping of interactomes” (Nature Communications, 2022).

T1: LNX2_1, Q8N448
T1 sequence (Q8N448 228-328, limits assumed, looked up): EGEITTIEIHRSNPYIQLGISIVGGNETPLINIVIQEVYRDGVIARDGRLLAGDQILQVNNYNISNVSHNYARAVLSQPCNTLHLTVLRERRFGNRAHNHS


How the values were obtained:
Test in all cases: holdup assay
Design in all cases: key: below the threshold = too weak to quantify, mostly under pKd 3.1 to 4
Conditions in all cases: plain residues with an end cap or a label only (N-terminal biotin on a linker: ttds)
Q9ULJ8 = molecular target: Q9ULJ8
O75970 = molecular target: O75970
Q96SB3 = molecular target: Q96SB3
Q9C0E4 = molecular target: Q9C0E4
Q92614 = molecular target: Q92614
Q13368 = molecular target: Q13368
O00233 = molecular target: O00233
Q9NR12 = molecular target: Q9NR12
Q96HC4 = molecular target: Q96HC4
Q13009 = molecular target: Q13009
Q96JB8 = molecular target: Q96JB8
Q9NPB6 = molecular target: Q9NPB6
Q6ZWJ1 = molecular target: Q6ZWJ1
Q8IUC4 = molecular target: Q8IUC4
Q96JY6 = molecular target: Q96JY6
O00560 = molecular target: O00560
Q70Z35 = molecular target: Q70Z35
O60759 = molecular target: O60759
Q9Y3R0 = molecular target: Q9Y3R0
Q9UDY2 = molecular target: Q9UDY2
O15021 = molecular target: O15021
Q8TEW0 = molecular target: Q8TEW0
Q12923 = molecular target: Q12923
NHERF4_3, Q86UT5 = molecular target: NHERF4_3, Q86UT5
NHERF4_3, Q86UT5, sequence (Q86UT5 325-412): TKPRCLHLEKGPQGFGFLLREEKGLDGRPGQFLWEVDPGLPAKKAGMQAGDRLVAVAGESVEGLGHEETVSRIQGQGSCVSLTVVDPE

Q8TDM6 = molecular target: Q8TDM6
Q8TB45 = molecular target: Q8TB45
LNX2_1, Q8N448 = molecular target: T1, LNX2_1, Q8N448
LNX1_4, Q8TBB1 = molecular target: LNX1_4, Q8TBB1
LNX1_4, Q8TBB1, sequence (Q8TBB1 631-726): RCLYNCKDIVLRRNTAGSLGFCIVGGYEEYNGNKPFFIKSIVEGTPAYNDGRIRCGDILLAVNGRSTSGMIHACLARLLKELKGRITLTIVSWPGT

Row | Binder | pKd (Q9ULJ8) | pKd (O75970) | pKd (Q96SB3) | pKd (Q9C0E4) | pKd (Q92614) | pKd (Q13368) | pKd (O00233) | pKd (Q9NR12) | pKd (Q96HC4) | pKd (Q13009) | pKd (Q96JB8) | pKd (Q9NPB6) | pKd (Q6ZWJ1) | pKd (Q8IUC4) | pKd (Q96JY6) | pKd (O00560) | pKd (Q70Z35) | pKd (O60759) | pKd (Q9Y3R0) | pKd (Q9UDY2) | also measured
1 | PKTPPTDTSV [KIR3DL3, Q8N743] | below the threshold | below the threshold | below the threshold | below the threshold | below the threshold | below the threshold | below the threshold | below the threshold | below the threshold | below the threshold | below the threshold | below the threshold | below the threshold | below the threshold | below the threshold | below the threshold | below the threshold | below the threshold | below the threshold | below the threshold | pKd (O15021): below the threshold; pKd (Q8TEW0): below the threshold; pKd (Q12923): below the threshold
2 | RSLEEEESQL [GRASP, Q7Z6J2] | below the threshold | below the threshold | below the threshold | below the threshold | below the threshold | below the threshold | below the threshold | below the threshold | below the threshold | below the threshold | below the threshold | below the threshold | below the threshold | below the threshold | below the threshold | below the threshold | below the threshold | below the threshold | below the threshold | below the threshold | pKd (NHERF4_3, Q86UT5): below the threshold; pKd (O15021): below the threshold; pKd (Q8TEW0): below the threshold; pKd (Q12923): below the threshold
3 | SVWLRKETRV [CYSLTR2, Q9NS75] | below the threshold | below the threshold | below the threshold | below the threshold | below the threshold | below the threshold | below the threshold | below the threshold | below the threshold | below the threshold | below the threshold | below the threshold | below the threshold | below the threshold | below the threshold | below the threshold | below the threshold | below the threshold | below the threshold | below the threshold | pKd (Q8TDM6): below the threshold; pKd (Q8TB45): below the threshold; pKd (NHERF4_3, Q86UT5): below the threshold; pKd (O15021): below the threshold; pKd (Q8TEW0): below the threshold; pKd (Q12923): below the threshold
4 | SRPQRTQTQV [HPV67-E6, A4U7F2] | – | – | – | – | – | – | – | – | – | – | – | – | – | – | – | – | – | – | – | – | pKd (NHERF4_3, Q86UT5): below the threshold
5 | QSARYRDTEL [TJP2, Q9UDY2] | below the threshold | below the threshold | below the threshold | below the threshold | below the threshold | below the threshold | below the threshold | below the threshold | below the threshold | below the threshold | below the threshold | below the threshold | below the threshold | below the threshold | below the threshold | below the threshold | below the threshold | below the threshold | below the threshold | below the threshold | pKd (NHERF4_3, Q86UT5): below the threshold; pKd (O15021): below the threshold; pKd (Q8TEW0): below the threshold; pKd (Q12923): below the threshold
6 | SSRTRRETQL [HPV16-E6, P03126] | – | – | – | – | – | – | – | – | – | – | – | – | – | – | – | – | – | – | – | – | pKd (LNX2_1, Q8N448): below the threshold; pKd (NHERF4_3, Q86UT5): 4.13; pKd (LNX1_4, Q8TBB1): below the threshold
7 | STLTIFETAL [ABCC4, O15439] | below the threshold | below the threshold | below the threshold | below the threshold | below the threshold | below the threshold | below the threshold | below the threshold | below the threshold | below the threshold | below the threshold | below the threshold | below the threshold | below the threshold | below the threshold | below the threshold | below the threshold | below the threshold | below the threshold | below the threshold | pKd (O15021): below the threshold; pKd (Q8TEW0): below the threshold; pKd (Q12923): below the threshold
